The text below walks through data of patent EP2450379B1.

In test [1] the target is full-length HA from isolate A/Vietnam/1194/2004 (H5N1TV) expressed on PER.C6 cells (influenza A virus A/Vietnam/1194/2004 (H5N1)) (UniProt Q80A26). Kind of test: FACS on HA (H5N1TV)-expressing PER.C6 cells, IgG 1 µg/ml, separate experiment.
Test [2] has the same target. Kind of test: FACS on HA (H5N1TV)-expressing PER.C6 cells, IgG 10 µg/ml.
Test [3] deals with recombinant HA, subtype H5 (A/Vietnam/1203/2004 (H5N1)) (influenza A virus A/Vietnam/1203/2004 (H5N1)) (UniProt Q80A26). Kind of test: ELISA, IgG 5 µg/ml. For orientation: ELISA stands for enzyme-linked immunosorbent assay.
In test [4] the target is recombinant HA, subtype H9 (A/Hong Kong/1073/99 (H9N2)) (influenza A virus A/Hong Kong/1073/99 (H9N2)). The test is described as follows: ELISA, IgG 5 µg/ml.
The target of test [5] is recombinant HA, subtype H7 (A/Netherlands/219/03 (H7N7)) (influenza A virus A/Netherlands/219/03 (H7N7)). Kind of test: ELISA, IgG 5 µg/ml.
Test [6] concerns the target recombinant HA, subtype H1 (A/New Caledonia/20/99 (H1N1)) (influenza A virus A/New Caledonia/20/99 (H1N1)) (UniProt Q289M7). The test is described as follows: ELISA, IgG 5 µg/ml.
Test [7] deals with recombinant HA, subtype H3 (A/Wyoming/3/2003(H3N2)) (influenza A virus A/Wyoming/3/2003 (H3N2)). Kind of test: ELISA, IgG 5 µg/ml.
The target in test [8] is full-length HA from isolate A/Vietnam/1194/2004 (H5N1TV) expressed on PER.C6 cells (influenza A virus A/Vietnam/1194/2004 (H5N1)) (UniProt Q80A26). Kind of test: FACS on HA (H5N1TV)-expressing PER.C6 cells, IgG 1 µg/ml.
Test [9] has the same target. Kind of test: FACS on HA (H5N1TV)-expressing PER.C6 cells, IgG 0.1 µg/ml.
Test [10] has the same target. Kind of test: FACS on HA (H5N1TV)-expressing PER.C6 cells, IgG 10 µg/ml, separate experiment.
Test [11] shares this target. The test is described as follows: FACS on HA (H5N1TV)-expressing PER.C6 cells, IgG 0.1 µg/ml, separate experiment.

For CR3014 (antibody), the flow cytometry signal worked out at 7.95 in test [1]; 13.1 in [2]; 10 in test [8]; 6.21 in [9]; 9.15 in test [10]; 10.5 in [11]. Also, the OD 492nm was 0.09 OD 492nm in test [3]; 0.16 OD 492nm in test [4]; 0.17 OD 492nm in [5]; 0.08 OD 492nm in test [6]; 0.07 OD 492nm in test [7].

On to CR6261 (antibody), for which the OD 492nm was 1.44 OD 492nm in test [3], 0.31 OD 492nm in test [5] and 0.07 OD 492nm in test [7].
